Assays:
[1] = target: T1, BTN1A1 peptide 4 Mutant 8 (T368A) (human); test: KD against BTN1A1-pep4- WT
T1 construct: The entry already carries the mutation; also called BTN1A1-pep4- Mutant 8
T1 peptide: EVEVGDRADWAIGVC

[2] = target: T2, BTN1A1 peptide 4 Mutant 9 (D369A) (human); test: KD against BTN1A1-pep4- WT
T2 construct: The entry already carries the mutation; also called BTN1A1-pep4- Mutant 9
T2 peptide: EVEVGDRTAWAIGVC

[3] = target: T3, BTN1A1 peptide 4 Mutant 10 (W370A) (human); test: KD against BTN1A1-pep4- WT
T3 construct: The entry already carries the mutation; also called BTN1A1-pep4- Mutant 10; mutant peptide #10
T3 peptide: EVEVGDRTDAAIGVC

[4] = target: T4, BTN1A1 peptide 4 Mutant 11 (A371G) (human); test: KD against BTN1A1-pep4- WT
T4 construct: The entry already carries the mutation; also called BTN1A1-pep4- Mutant 11
T4 peptide: EVEVGDRTDWGIGVC

[5] = target: T5, BTN1A1 peptide 4 Mutant 12 (I372A) (human); test: KD against BTN1A1-pep4- WT
T5 construct: The entry already carries the mutation; also called Mutant 12 (1372A); BTN1A1-pep4- Mutant 12
T5 peptide: EVEVGDRTDWAAGVC

[6] = target: T6, TRIM11 peptide; test: KD against BTN1A1-pep4- WT
T6 peptide: EVEVGDRTSWALGVC

[7] = target: T7, BTN1A1 Peptide 4 (human); test: KD against BTN1A1-pep4- WT
T7 construct: also called BTN1A1-pep4- WT; Pep4
T7 peptide: EVEVGDRTDWAIGVC

[8] = target: T8, BTN1A1 peptide 4 Mutant 5 (G365A) (human); test: KD against BTN1A1-pep4- WT
T8 construct: The entry already carries the mutation; also called BTN1A1-pep4- Mutant 5
T8 peptide: EVEVADRTDWAIGVC

[9] = target: T9, BTN1A1 peptide 4 Mutant 6 (D366A) (human); test: KD against BTN1A1-pep4- WT
T9 construct: The entry already carries the mutation; also called BTN1A1-pep4- Mutant 6; mutant peptide #6
T9 peptide: EVEVGARTDWAIGVC

[10] = target: T10, BTN1A1 peptide 4 Mutant 7 (R367A) (human); test: KD against BTN1A1-pep4- WT
T10 construct: The entry already carries the mutation; also called BTN1A1-pep4- Mutant 7
T10 peptide: EVEVGDATDWAIGVC

[11] = target: T11, denatured hBTN1A1 ICD (human, UniProt Q13410 270-526); test: ELISA clone screen, GenScript
T11 construct: Same protein as hBTN1A1 ICD, denatured before the ELISA; also called hBTN1A1 ICD denatured; Denatured ICD
T11 sequence: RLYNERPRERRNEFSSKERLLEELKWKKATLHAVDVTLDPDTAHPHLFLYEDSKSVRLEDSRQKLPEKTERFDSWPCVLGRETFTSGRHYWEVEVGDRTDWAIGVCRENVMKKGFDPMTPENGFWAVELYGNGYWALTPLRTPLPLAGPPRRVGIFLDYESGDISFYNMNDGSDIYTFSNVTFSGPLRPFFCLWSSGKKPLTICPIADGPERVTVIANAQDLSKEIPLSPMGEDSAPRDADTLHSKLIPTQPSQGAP

[12] = target: peptide 4 variant A371G expressed by HEK293T cells (human); test: western blot, HEK293T lysate, antibody 1 ug/ml
[13] = target: peptide 4 variant I372A expressed by HEK293T cells (human); test: western blot, HEK293T lysate, antibody 1 ug/ml
[14] = target: T12, mouse BTN1A1 (mouse, UniProt Q62556 27-524, limits assumed); test: immunohistochemistry, 2 ug/mL
T12 construct: also called mBTN1A1
T12 sequence (looked up): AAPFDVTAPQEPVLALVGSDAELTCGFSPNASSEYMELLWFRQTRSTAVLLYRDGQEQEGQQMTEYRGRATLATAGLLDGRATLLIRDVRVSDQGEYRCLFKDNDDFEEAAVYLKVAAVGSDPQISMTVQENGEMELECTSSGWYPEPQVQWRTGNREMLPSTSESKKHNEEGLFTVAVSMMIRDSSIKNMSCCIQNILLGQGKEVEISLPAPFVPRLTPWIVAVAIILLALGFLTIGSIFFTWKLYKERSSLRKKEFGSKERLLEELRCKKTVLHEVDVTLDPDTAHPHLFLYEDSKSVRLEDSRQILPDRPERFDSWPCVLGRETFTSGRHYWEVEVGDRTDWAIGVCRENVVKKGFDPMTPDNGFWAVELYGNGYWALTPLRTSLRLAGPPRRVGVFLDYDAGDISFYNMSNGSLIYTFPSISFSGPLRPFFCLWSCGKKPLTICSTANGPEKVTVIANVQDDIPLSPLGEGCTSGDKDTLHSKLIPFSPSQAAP
Text: […]

Fold change [1]: 21 fold
Fold change [2]: 463 fold
Fold change [3]: 59 fold
Fold change [4]: 16 fold
Fold change [5]: 126 fold
Fold change [6]: 7360 fold
Fold change [7]: 1 fold
Fold change [8]: 20 fold
Fold change [9]: 160 fold
Fold change [10]: 4 fold
ELISA signal [11]: 2.27
STC43H11-1 Adj. Vol. (Int) [12]: 156000
STC43H11-1 Adj. Vol. (Int) [13]: 4010
binding result [14]: binds
B1: STC43H11-1 (antibody, V domains shown)
VH: QSLEESGGRLVTPGGSLTLTCTVSGIDLSSYAMGWVRQAPGEGLEWIGSIGTGGGTGYASWAKGRFTISKTSTTVDLKMTSLTASDTATYFCATSNLWGPGTLVTVSS
VL: QVLTQTASPVSAAVGGTVTINCQASQSVYNNNRCSWFQQKPGQPPKRLIYHTSTLDSGVPSRFKGSGSGTQFTLTISDVQCDDAATYYCLGNYDCSRADCAAFGGGTEVVVK
notes: From immunized New Zealand rabbits; IgG heavy chain and Kappa light chain; also called clone #43H11; Clone 43H11

From patent US20250189530A1 (STCUBE, published 2025)
